Where no end group is shown, it is not given here.
Tests used:
[1] = molecular target: T1, GPIIb-IIIa on Cam platelets (Homo sapiens, UniProt P05106+P08514, D145Y); assay: Flow cytometry of platelet surface GPIIb-IIIa, Cam variant thrombasthenia platelets; type: binding
T1 construct: from tissue; host or cells: platelets in platelet-rich plasma from venous blood of two Cam variant siblings
Description: FIGS. 2A through 2H show a flow cytometric analysis of the deficit in Cam variant of thrombasthenia. Shown are histograms with the log of fluorescence intensity on the abscissa and cell number on the ordinate. The reporting antibody is indicated in the left hand column. Cam platelets are shown in FIGS. 2A, 2C, 2E and 2G and the normal control in FIGS. 2B, 2D, 2F and 2H. Each column of figures contains a legend indicating the added agonist, peptide, or antibody. […] Similar data were obtained with other antibodies to GPIIb-IIIa (7E3, 10E5, 4F10) and an antibody to GPIIb (Tab). The Cam variant data shown are representative of determinations on two affected male siblings with identical results.
Based on the model depicted in FIG. 1, abnormal platelet aggregation can arise from a defect in the activation of platelet fibrinogen receptors, a defect in fibrinogen binding per se, or a defect in the postoccupancy events required for optimal aggregation. The potential usefulness of this model was tested by studying two patients with persistent and severe defects in platelet aggregation. To quantitate fibrinogen receptor activation and ligand binding, a fluorescein-labeled MoAb (PAC1) which specifically recognizes the activated form of GPIIb-IIIa, was employed (Shattil et al., J. Biol. Chem., 260:11107 (1985)). Antibody binding was measured in small (5 μL) samples of platelet rich plasma by flow cytometry.
Platelet rich plasma was obtained by taking venous blood from patients and controls who had not ingested medications for at least 10 days, anticoagulating with 1/10 volume of 3.8% sodium citrate, and sedimentating red and white blood cells at 180 g for 20 minutes at room temperature. Immediately thereafter, 5-μL aliquots of platelet-rich plasma were added to polypropylene tubes containing a fluorescein isothiocyanate-conjugated monoclonal antibody (10^-9 to 10^-6 mol/L) in Tyrode's buffer (1% bovine serum albumin, 2 mmol/L MgCl2, 137.5 mmol/L NaCl, 12 mmol/L NaHCO3, 2.6 mmol/L KCl, pH 7.4). Samples were incubated without stirring in a total volume of 50 μL for 15 minutes at room temperature with agonists and peptides as indicated. Samples were then diluted to 0.5 mL with Tyrode's buffer and analyzed on a FACStar flow cytometer (Bectin-Dickinson Immunocytometry Systems, Mountain View, Calif.). Light scatter and fluorescence signals were acquired at logarithmic gain, and 10,000 platelets in each sample were analyzed. Results are expressed as mean platelet fluorescence intensity in arbitrary fluorescence units or as histograms of log platelet fluorescence intensity in arbitrary units on the abscissa and platelet number on the ordinate.

[2] = system: GPIIb-IIIa on MPD platelets; assay: Flow cytometry of platelet surface GPIIb-IIIa, myelofibrosis (MPD) patient platelets; type: binding, human
Protocol: The disclosing antibody is indicated in the left hand column. In each column, the legend indicates the added agonist or peptide. Agonist and peptide concentrations were identical to those in FIGS. 2A-2H. Phorbol myristate acetate (PMA) was present in a final concentration of 50 nmol/L. Anti-TSP refers to the binding of a MoAb against thrombospondin.
(§1) Samples were incubated without stirring in a total volume of 50 μL for 15 minutes at room temperature with agonists and peptides as indicated. Samples were then diluted to 0.5 mL with Tyrode's buffer and analyzed on a FACStar flow cytometer (Bectin-Dickinson Immunocytometry Systems, Mountain View, Calif.). Light scatter and fluorescence signals were acquired at logarithmic gain, and 10,000 platelets in each sample were analyzed. Results are expressed as mean platelet fluorescence intensity in arbitrary fluorescence units or as histograms of log platelet fluorescence intensity in arbitrary units on the abscissa and platelet number on the ordinate.

[3] = system: platelets; conditions: cited from earlier work
[4] = system: GPIIb-IIIa; conditions: cited from earlier work
[5] = system: platelets; assay: 125I-fibrinogen binding to platelets; conditions: 10 uM ADP; 37 degrees, 30 minutes
Protocol: Fibrinogen was isolated and labelled with ^125 I by standard methods as described by Marguerie et al., J. Biol. Chem., 255:154-161 (1980) to form ^125 I-Fg. Thereafter, the binding of ^125 I-Fg to platelets was assayed as described previously. Marguerie et al., J. Biol. Chem., 255:154-161 (1980). Binding was initiated by the admixture of a million resting platelets in the presence or absence of 10 micromolar adenosine diphosphate (ADP) to radiolabelled fibrinogen at varying concentrations from 0.01 to 1 nanomolar (nM) and incubation at 37 degrees for 30 minutes. Bound fibrinogen was separated from free fibrinogen by centrifugation of the platelet-fibrinogen admixture through 0.3 ml of 20% sucrose and the amount of radiolabelled fibrinogen associated with the cell pellet determined by gamma detection.

[6] = molecular target: T2, GPIIb-IIIa on normal platelets (Homo sapiens, UniProt P05106+P08514); assay: Flow cytometry of platelet surface GPIIb-IIIa, normal (control) platelets; type: binding
T2 construct: Analysis of Platelet Surface GPIIb-IIIa by Flow Cytometry; from tissue; host or cells: platelets in platelet-rich plasma from venous blood of controls
Protocol: as §1

[7] = system: normal GPIIb-IIIa; assay: KYGRGDS affinity chromatography of surface-labeled platelet lysate, normal platelets; type: binding, human
Protocol: (§2) To directly examine the ligand binding function of Cam GPIIb-IIIa, extracts of ^125 I surface-labeledplatelets were subjected to affinity chromatography using an immobilized RGD peptide.
(§3) Platelets were isolated from acid-citrate dextrose anticoagulated human blood by differential centrifugation followed by gel filtration on Sepharose 2B (Ginsberg et al., Blood, 69:58 (1987)). Lysates of surface-labeled platelets were analyzed by KYGRGDS affinity chromatography as described by Lam et al., J. Biol. Chem., 262:947 (1987). Briefly, intact platelets were radioiodinated by the lactoperoxidase-H2 O2 method then resuspended to 2×10^8 platelets/mL and solubilized in lysis buffer containing 10 mmol/L N-2-hydroxyethylpiperazine-N'-2-ethanesulfonic acid (HEPES), pH 7.5, 0.15 mol/L NaCl, 1 mmol/L CaCl2, 1 mmol/L MgCl2, 0.1 mmol/L leupeptin, 1 mmol/L phenylmethanesulfonylfluoride (PMSF), 10 mmol/L N-ethylmaleimide, and 50 mmol/L octylglucoside. […] Under these conditions approximately 10% of normal GPIIb-IIIa is bound and eluted.
(§4) The GPIIb-IIIa content in the starting material and in the column fractions was quantitated by use of a polyclonal anti-GPIIb-IIIa antibody in an ELISA assay. The control extract contained 332 μg; the Cam individual contained 240 μg in the starting extract. The eluted fractions from the control extract contained 20 μg GPIIb-IIIa. […]

[8] = system: Cam GPIIb-IIIa; assay: KYGRGDS affinity chromatography of surface-labeled platelet lysate, Cam platelets; type: binding, human; conditions: Cam extract, 240 μg GPIIb-IIIa in starting extract; eluted with GRGDSP
Protocol: as §2, §3, §4

Compound: PAC 1
- PAC1 fluorescence of PMA-activated Cam platelets ([1]; 50 nmol/L phorbol myristate acetate (PMA)): no increase
- PAC1 binding to ADP-activated Cam platelets ([1]; ADP 100 μmol/L): complete lack of binding
- Expression of PAC1 binding sites on stimulated MPD platelets ([2]; 50 μmol/L epinephrine (not shown)): did not express PAC1 binding sites
- Expression of PAC1 binding sites on stimulated MPD platelets ([2]; 10 μm ADP): did not express PAC1 binding sites
- PAC1 binding to MPD platelets in response to PMA ([2]; PMA 50 nmol/L): bound
- Fibrinogen Binding (effect of antibody on fibrinogen binding to platelets) [3]: Decrease
- Effect of Peptides (RGD or fibrinogen gamma chain C-terminal peptides) on antibody binding [4]: Decrease

Compound: Nc1ncnc2c1ncn2[C@@H]1O[C@H](COP(=O)(O)OP(=O)(O)O)[C@@H](O)[C@H]1O [ADP, adenosine diphosphate]
- Increase in number of 125I-Fg molecules bound to platelets [5]: at least a three fold increase

Compound: LGGAKQAGDV [gamma(402-411)]
- anti-LIBS1 binding, fluorescence ([6]; control platelets with gamma(402-411) 400 μmol/L): 201 fluorescence U
- anti-LIBS1 binding, fluorescence ([1]; Cam platelets with gamma(402-411) 400 μmol/L): 31 U
- Change in anti-LIBS1 binding caused by gamma(402-411) ([1]; Cam platelets, gamma(402-411) 400 μmol/L): failed to increase

Compound: Gly-Arg-Gly-Asp-Ser-Pro [GRGDSP]
- Fluorescence Increase (LIBS-1 expression, anti-LIBS 1 binding), Normal ([6]; [GRGDSP] 2 μM, normal platelets): 20
- Fluorescence Increase (LIBS-1 expression, anti-LIBS 1 binding), Normal ([6]; [GRGDSP] 4 μM, normal platelets): 31
- Fluorescence Increase (LIBS-1 expression, anti-LIBS 1 binding), Normal ([6]; [GRGDSP] 10 μM, normal platelets): 48
- Fluorescence Increase (LIBS-1 expression, anti-LIBS 1 binding), Normal ([6]; [GRGDSP] 40 μM, normal platelets): 70
- Fluorescence Increase (LIBS-1 expression, anti-LIBS 1 binding), Normal ([6]; [GRGDSP] 200 μM, normal platelets): 106
- PMI-1 binding, mean fluorescence intensity ([6]; normal platelets treated with 200 μmol/L GRGDSP): 151 fluorescence units
- anti-LIBS1 binding, mean fluorescence ([6]; normal platelets with GRGDSP 200 μmol/L): 205 U
- Increase in PMI-1 binding ([6]; normal platelets, 200 μmol/L GRGDSP): 2.5 fold
- Increase in anti-LIBS1 binding caused by peptide ([6]; normal platelets, GRGDSP 200 μmol/L): fourfold increase
- PMI-1 binding, mean fluorescence intensity ([1]; Cam platelets treated with 200 μmol/L GRGDSP): 107 fluorescence units
- anti-LIBS1 binding, mean fluorescence ([1]; Cam platelets with GRGDSP 200 μmol/L): 25 U
- Change in PMI-1 binding in response to GRGDSP ([1]; Cam platelets, 200 μmol/L GRGDSP): no increase
- Change in anti-LIBS1 binding caused by GRGDSP ([1]; Cam platelets, GRGDSP 200 μmol/L): no increase
- Fluorescence Increase (LIBS-1 expression, anti-LIBS 1 binding), Cam ([1]; [GRGDSP] 2 μM, Cam platelets): 3
- Fluorescence Increase (LIBS-1 expression, anti-LIBS 1 binding), Cam ([1]; [GRGDSP] 4 μM, Cam platelets): 3
- Fluorescence Increase (LIBS-1 expression, anti-LIBS 1 binding), Cam ([1]; [GRGDSP] 10 μM, Cam platelets): 3
- Fluorescence Increase (LIBS-1 expression, anti-LIBS 1 binding), Cam ([1]; [GRGDSP] 40 μM, Cam platelets): 3
- Fluorescence Increase (LIBS-1 expression, anti-LIBS 1 binding), Cam ([1]; [GRGDSP] 200 μM, Cam platelets): 6

Compound: KYGRGDS [Lys-Tyr-Gly-Arg-Gly-Asp-Ser]
- GPIIb-IIIa in eluted fractions (ELISA) ([7]; control extract, 332 μg GPIIb-IIIa in starting extract, eluted with GRGDSP): 20 µg
- Share of normal GPIIb-IIIa bound to KYGRGDS-Sepharose and eluted ([7]; lysate 12 hours at 4° C., eluted with 1 mmol/L GRGDSP): approximately 10%
- GPIIb-IIIa in eluted fractions (ELISA) [8]: 2.6 µg

— patent US5196309A, “Characterization of platelet aggregation disorders” (The Scripps Research Institute, priority 1990, dated 1993)
